Laboratory results as given in patent publication US20030013634A1, “Synthesis of small particles” (priority 2000, published 2003).

What was measured:
[1] = Median particle size by laser diffraction; assay type: physicochemical; conditions: for median particle size: laser diffraction, agglomerated insulin powder, Example 5
From the text: These fine insulin particles may aggregate to form larger particles due to intermolecular interaction between the molecules. […] Insulin precipitated as nano-sized particles, was also agglomerated to micron-sized particles.

[2] = Aerosol characterisation by impaction (Marple-Miller / Cascade Impactor); assay type: physicochemical
Protocol: In order to determine the aerosol performance of the protein particles, in vitro testing of the particles was assessed using a 5 stage Marple-Miller Impactor (Model 160, MSP Corporation, USA) with cut-off diameters of […]. The Marple-Miller impactor consisted of a stainless steel inlet throat, five impaction stages and an integral filter stage. The stages were previously coated with propylene glycol/methanol (50:50) to prevent particle bounce, thus minimising the probability of carry over of coarse particles onto lower stages.
A mass of 10-20 mg of insulin was weighed into a gelatin capsule (size 3, Park Davis, Australia) and was immediately dispersed by a powder inhaler device, Dinkihaler (Aventis, Frankfurt, Germany) into the Marple Miller Impactor at 60 L/min using a vacuum source (ERWEKA GMBH, Germany).
The fraction of the protein recovered in each stage was calculated by measuring the absorbance of the protein solution against the absorbance of a standard 1% solution of insulin.

[3] = Biochemical integrity by size exclusion chromatography (monomer content); assay type: physicochemical; conditions: for biological activity as indicated by the in vitro test for monomer content: after processing with the anti-solvent
Protocol: A protein-Pak 125 column (Waters, USA) was used for insulin. The mobile phase consisted of 50 mM sodium phosphate buffer at pH 3 with 300 mM sodium chloride. The powder samples were dissolved to prepare 1 mg/mL solution in deionised water by gentle shaking for 10 minutes to have complete dissolution. The supernatant was filtered through […] membrane filter and then injected into the HPLC column. […] The software Millennium 3.5 was used in the quantification of the monomer content.

[4] = Insulin deamidation testing by reverse phase HPLC; assay type: physicochemical; conditions: 2 mg/mL, after particle formation
Protocol: In order to determine the percentage of insulin that was deamidated by the process, a test of the insulin was performed using high performance liquid chromatography (HPLC). A reverse phase column (Symmetry® C18, 5 μm packing, 4.6 mm×150 mm) was used to separate the deamidated from the non-deamidated insulin. The gradient method was used with eluents 0.1% trifluoroacetic acid/acetonitrile 26% to 33% and the flow rate of 1 mL/min. The absorbance was monitored at 280 nm.
The percentage of deamido insulin was determined by comparing the peak area of the degradation product to the area of standard insulin containing the same concentration of insulin (2 mg/mL).

[5] = Particle size and morphology by SEM; assay type: physicochemical
From the text: These fine insulin particles may aggregate to form larger particles due to intermolecular interaction between the molecules.

[6] = values reported in the literature; cited from earlier work

Substance	D(0.5, V) median particle size based on volume ([1]; 2-stage process)	D(0.5, V) median particle size based on volume ([1]; single stage production unit)	FPM (%) fine particle mass, mass fraction of particles below 5 μm ([2]; 2-stage process) [%]	biological activity as indicated by the in vitro test for monomer content [3]	increase in the amount of material less than 5 μm aerodynamic diameter ([2]; 2-stage versus single stage process) [%]	fraction of particles with a size >10 μm ([2]; aerodynamic particle size distribution, FIG. 4)	FPM (%) fine particle mass, mass fraction of particles below 5 μm ([2]; single stage production unit) [%]	median particle size [1] [μm]	median particle size ([1]; listed as Insulin)	fine particle fraction (% <5 μm) ([2]; Marple Miller Impactor, Dinkihaler, 60 L/min)	monomer content ([3]; 1 mg/mL in deionised water, after particle formation) [%]	percentage of deamido insulin [4] [%]	size of nano-sized particles ([5]; modified dual vessel apparatus (FIG. 10b))	size of nano-sized particles ([5]; single-stage apparatus (FIG. 9b))	maximum FPM obtained by other methods [6] [%]
CO2-ethanol: Insulin particles precipitated using carbon dioxide modified with 20 mol % ethanol as anti-solvent (comparison)	8.2 +/− 0.6	11.8 +/− 1.6	21.9	significant deactivation	–	–	–	–	–	–	–	–	–	–	–
Ethane-ethanol	4.8 +/− 0.4	12.8 +/− 1.0	43.5	retention of biological activity	100	around 45%	20.0	–	–	–	–	–	–	–	–
insulin: Low endotoxin bovine insulin (Sigma), precipitated as fine particles from aqueous solution by the ASES process	–	–	45	–	–	–	20	5	about 5 μm	at least 42%	99.5	3.0	50-500 nm	50-500 nm	≤ 10
